Experimental findings from article PMC10191836 (2023) are described below.

The target in the test is T1, C-terminal region of human LTBP-1 (human, UniProt Q14766 1347-1721).
T1 chain: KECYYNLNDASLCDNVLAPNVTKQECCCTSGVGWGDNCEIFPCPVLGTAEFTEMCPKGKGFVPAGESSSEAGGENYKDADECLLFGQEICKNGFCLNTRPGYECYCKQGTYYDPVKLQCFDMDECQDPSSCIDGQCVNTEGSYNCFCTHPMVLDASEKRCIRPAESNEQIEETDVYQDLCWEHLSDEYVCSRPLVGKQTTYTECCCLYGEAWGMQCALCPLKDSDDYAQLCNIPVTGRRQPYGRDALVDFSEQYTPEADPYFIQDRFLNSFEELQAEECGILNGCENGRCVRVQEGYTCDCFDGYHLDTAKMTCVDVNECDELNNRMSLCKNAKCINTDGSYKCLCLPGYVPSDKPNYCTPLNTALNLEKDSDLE
Nature of the test: SPR. A general note: Surface plasmon resonance follows binding to a sensor surface in real time, without labels.

B1: recombinant human fibrillin-1 N-terminal fragment PF3 with the WMS deletion (domains TB1–PRR–EGF4) (domain or fragment)
chain: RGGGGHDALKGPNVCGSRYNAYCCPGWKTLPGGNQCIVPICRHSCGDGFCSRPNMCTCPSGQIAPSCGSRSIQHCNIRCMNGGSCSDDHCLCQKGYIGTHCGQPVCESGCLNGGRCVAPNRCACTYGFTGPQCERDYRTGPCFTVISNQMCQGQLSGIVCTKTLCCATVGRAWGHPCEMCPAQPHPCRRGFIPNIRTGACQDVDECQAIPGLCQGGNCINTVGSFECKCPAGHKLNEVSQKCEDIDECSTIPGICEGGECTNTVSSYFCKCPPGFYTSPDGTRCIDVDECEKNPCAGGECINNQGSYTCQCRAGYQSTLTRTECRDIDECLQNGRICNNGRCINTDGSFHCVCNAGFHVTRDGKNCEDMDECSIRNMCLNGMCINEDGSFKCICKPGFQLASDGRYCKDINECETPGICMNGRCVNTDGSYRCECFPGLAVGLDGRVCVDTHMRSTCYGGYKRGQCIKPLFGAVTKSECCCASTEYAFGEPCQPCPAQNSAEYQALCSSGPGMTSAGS
modifications: Calcium bound to the cbEGF domains; disulfide bonded. The PF3 end is not printed: it is taken as the end of TB2 (722), because the paper's fragment boundaries are at 330 and 723. The WMS deletion TB1-PRR-EGF4 is taken as 330-489 from domain limits. The N-terminus is assumed to be processed at 44/45.
As for B1, the Kd – broadly, the equilibrium constant for the complex coming apart – turned out to be 50.1 nM.

B2: recombinant human fibrillin-1 N-terminal fragment PF3 (domain or fragment)
chain: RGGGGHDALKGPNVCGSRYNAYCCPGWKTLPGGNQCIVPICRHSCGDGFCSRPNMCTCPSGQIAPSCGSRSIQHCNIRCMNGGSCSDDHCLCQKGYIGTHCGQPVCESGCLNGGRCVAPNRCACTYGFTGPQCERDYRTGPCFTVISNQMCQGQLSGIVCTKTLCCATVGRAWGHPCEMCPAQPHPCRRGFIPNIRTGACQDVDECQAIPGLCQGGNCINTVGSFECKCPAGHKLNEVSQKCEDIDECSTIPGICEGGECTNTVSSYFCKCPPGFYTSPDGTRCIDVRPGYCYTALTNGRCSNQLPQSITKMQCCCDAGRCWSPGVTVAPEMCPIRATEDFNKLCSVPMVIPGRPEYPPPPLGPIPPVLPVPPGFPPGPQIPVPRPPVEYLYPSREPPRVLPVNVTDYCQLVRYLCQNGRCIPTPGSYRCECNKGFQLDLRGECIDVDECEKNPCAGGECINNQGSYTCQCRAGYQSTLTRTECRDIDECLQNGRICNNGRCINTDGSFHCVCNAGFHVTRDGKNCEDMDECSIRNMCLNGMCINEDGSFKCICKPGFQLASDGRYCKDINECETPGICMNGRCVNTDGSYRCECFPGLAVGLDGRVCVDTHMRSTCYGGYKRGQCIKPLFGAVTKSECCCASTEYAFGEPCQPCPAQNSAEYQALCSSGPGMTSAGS
For B2, the Kd was determined as 17.7 nM. This Kd lies about 2.8-fold lower than the previous one.
